B1: Twister Ribozyme (parent)
chain: AACACUGCCAAUGCCGGUCCCAAGCCCGGAUAAAAGUGGAGGGGGCGG

Variants of: B1
Test: self-cleavage, relative activity (ratio to wild type); higher = more cleavage; co-transcriptional

Going from A10U A11C to A10U A11G, the self-cleavage rises from 1.03 to 1.09.

Compared with A10U A11U, A10U A22G is lower in self-cleavage: 1.14 for the first, 0.291 for the second.

Going from A10U A22U to A10U A23U, the self-cleavage falls from 0.829 to 0.632.

Compared with A10U A30C, A10U A30G is higher in self-cleavage: 0.784 for the first, 0.915 for the second.

Compared with A10U A30U, A10U A33C is higher in self-cleavage: 0.922 for the first, 1.08 for the second.

Compared with A10U A33G, A10U A33U is higher in self-cleavage: 0.825 for the first, 1.07 for the second.

Compared with A10U A34C, A10U A34G is higher in self-cleavage: 0.279 for the first, 0.703 for the second.

Compared with A10U A35C, A10U A35G is lower in self-cleavage: 1.16 for the first, 0.808 for the second.

Going from A10U A40G to A10U C14A, the self-cleavage rises from 0.191 to 0.824.

First: A10U C14G
Second: A10U C19A
The self-cleavage of the first is lower: 0.244 for the first, 0.331 for the second.

Going from A10U C19G to A10U C20A, the self-cleavage falls from 0.367 to 0.168.

Compared with A10U C20G, A10U C20U is higher in self-cleavage: 0.131 for the first, 0.948 for the second.

Going from A10U C21A to A10U C21G, the self-cleavage falls from 0.175 to 0.126.

Compared with A10U C21U, A10U C25A is lower in self-cleavage: 0.0991 for the first, 0.0757 for the second.

Going from A10U C25U to A10U C26A, the self-cleavage falls from 0.731 to 0.607.

Going from A10U C26G to A10U C26U, the self-cleavage rises from 0.264 to 0.437.

Going from A10U C27A to A10U C46A, the self-cleavage rises from 0.645 to 0.913.

First: A10U C46G
Second: A10U G13U
The self-cleavage of the first is higher: 0.857 for the first, 0.489 for the second.

Compared with A10U G16A, A10U G17U is lower in self-cleavage: 0.89 for the first, 0.302 for the second.

Going from A10U G24A to A10U G24C, the self-cleavage rises from 0.0831 to 0.0965.

Going from A10U G28A to A10U G28C, the self-cleavage falls from 0.885 to 0.768.

Compared with A10U G29A, A10U G29C is lower in self-cleavage: 1.08 for the first, 0.617 for the second.

First: A10U G36C
Second: A10U G38A
The self-cleavage of the first is lower: 0.711 for the first, 1.04 for the second.

Compared with A10U G38C, A10U G39A is lower in self-cleavage: 0.933 for the first, 0.531 for the second.

Compared with A10U G39U, A10U G41A is higher in self-cleavage: 0.215 for the first, 0.626 for the second.

First: A10U G41C
Second: A10U G41U
The self-cleavage of the first is lower: 0.239 for the first, 0.61 for the second.

Going from A10U G42A to A10U G42C, the self-cleavage rises from 0.489 to 0.543.

First: A10U G43A
Second: A10U G43C
The self-cleavage of the first is higher: 0.373 for the first, 0.2 for the second.

Going from A10U G43U to A10U G44A, the self-cleavage rises from 0.501 to 0.924.

Going from A10U G45C to A10U G48C, the self-cleavage rises from 0.707 to 1.09.

Compared with A10U G48U, A10U U12C is lower in self-cleavage: 0.933 for the first, 0.931 for the second.

Compared with A10U U12G, A10U U31A is lower in self-cleavage: 0.759 for the first, 0.694 for the second.

First: A10U U31C
Second: A10U U37A
The self-cleavage of the first is higher: 0.919 for the first, 0.86 for the second.

Compared with A10U U37C, A11C A22U is lower in self-cleavage: 0.667 for the first, 0.58 for the second.

First: A11C A23G
Second: A11C A23U
The self-cleavage of the first is higher: 0.249 for the first, 0.149 for the second.

Going from A11C A30U to A11C A32C, the self-cleavage falls from 0.959 to 0.769.

Going from A11C A32U to A11C A33C, the self-cleavage falls from 0.831 to 0.724.

Going from A11C A33G to A11C A34C, the self-cleavage falls from 0.893 to 0.049.

First: A11C A34U
Second: A11C A35C
The self-cleavage of the first is lower: 0.785 for the first, 0.886 for the second.

First: A11C A35G
Second: A11C A35U
The self-cleavage of the first is lower: 0.574 for the first, 0.942 for the second.

First: A11C C14G
Second: A11C C15G
The self-cleavage of the first is higher: 0.164 for the first, 0.0591 for the second.

First: A11C C15U
Second: A11C C19A
The self-cleavage of the first is higher: 0.545 for the first, 0.136 for the second.

First: A11C C19G
Second: A11C C20A
The self-cleavage of the first is higher: 0.138 for the first, 0.129 for the second.

Going from A11C C21A to A11C C21G, the self-cleavage rises from 0.0812 to 0.118.

Going from A11C C21U to A11C C26A, the self-cleavage rises from 0.1 to 0.183.

Going from A11C C26G to A11C C27A, the self-cleavage rises from 0.08 to 0.176.

First: A11C C27G
Second: A11C C27U
The self-cleavage of the first is lower: 0.0803 for the first, 0.352 for the second.

Going from A11C G16C to A11C G17A, the self-cleavage falls from 0.187 to 0.134.

First: A11C G17U
Second: A11C G28A
The self-cleavage of the first is lower: 0.14 for the first, 0.656 for the second.

Going from A11C G28U to A11C G29C, the self-cleavage rises from 0.563 to 0.668.

Going from A11C G36C to A11C G38A, the self-cleavage rises from 0.636 to 0.768.

Compared with A11C G38C, A11C G38U is higher in self-cleavage: 0.731 for the first, 1.03 for the second.

Compared with A11C G41A, A11C G42C is higher in self-cleavage: 0.336 for the first, 0.419 for the second.

Compared with A11C G43C, A11C G43U is higher in self-cleavage: 0.159 for the first, 0.252 for the second.

First: A11C G44A
Second: A11C G44C
The self-cleavage of the first is higher: 0.955 for the first, 0.889 for the second.

Compared with A11C G45A, A11C G45C is lower in self-cleavage: 0.938 for the first, 0.581 for the second.

Compared with A11C G47A, A11C G47C is lower in self-cleavage: 0.836 for the first, 0.648 for the second.

Compared with A11C G47U, A11C U12A is lower in self-cleavage: 0.977 for the first, 0.907 for the second.

Going from A11C U12C to A11C U12G, the self-cleavage rises from 0.79 to 0.971.

First: A11C U18A
Second: A11C U18C
The self-cleavage of the first is higher: 0.159 for the first, 0.154 for the second.

First: A11C U18G
Second: A11C U31C
The self-cleavage of the first is lower: 0.0822 for the first, 0.876 for the second.

Going from A11G A22C to A11G A22U, the self-cleavage falls from 0.904 to 0.66.

First: A11G A23C
Second: A11G A23G
The self-cleavage of the first is lower: 0.422 for the first, 0.447 for the second.

Going from A11G A30C to A11G A32C, the self-cleavage rises from 0.861 to 0.925.

Going from A11G A32G to A11G A33C, the self-cleavage falls from 0.882 to 0.836.

First: A11G A33G
Second: A11G A34C
The self-cleavage of the first is higher: 0.84 for the first, 0.353 for the second.

Going from A11G A34U to A11G A35G, the self-cleavage falls from 0.913 to 0.826.

Compared with A11G A35U, A11G A40G is lower in self-cleavage: 0.941 for the first, 0.11 for the second.

First: A11G C14A
Second: A11G C14G
The self-cleavage of the first is higher: 0.941 for the first, 0.133 for the second.

Going from A11G C14U to A11G C15G, the self-cleavage falls from 0.943 to 0.0492.

Compared with A11G C15U, A11G C19A is lower in self-cleavage: 0.912 for the first, 0.221 for the second.

First: A11G C20A
Second: A11G C20G
The self-cleavage of the first is lower: 0.117 for the first, 0.197 for the second.

Compared with A11G C20U, A11G C21A is lower in self-cleavage: 0.797 for the first, 0.107 for the second.

Compared with A11G C21G, A11G C21U is higher in self-cleavage: 0.0655 for the first, 0.12 for the second.

Going from A11G C25G to A11G C26G, the self-cleavage falls from 0.437 to 0.234.

Going from A11G C26U to A11G C27G, the self-cleavage falls from 0.466 to 0.0637.

Compared with A11G C46U, A11G G13U is lower in self-cleavage: 0.943 for the first, 0.705 for the second.

Going from A11G G16A to A11G G24U, the self-cleavage falls from 0.627 to 0.143.

First: A11G G28A
Second: A11G G28C
The self-cleavage of the first is higher: 0.84 for the first, 0.801 for the second.

Compared with A11G G28U, A11G G29A is higher in self-cleavage: 0.725 for the first, 0.772 for the second.

Compared with A11G G29U, A11G G36U is lower in self-cleavage: 0.762 for the first, 0.431 for the second.

Going from A11G G38A to A11G G38C, the self-cleavage falls from 0.824 to 0.683.

First: A11G G38U
Second: A11G G39A
The self-cleavage of the first is higher: 0.613 for the first, 0.477 for the second.

A11G G39C showed a self-cleavage of 0.119.
